Results from paper PMC10085699.
Where a chain is given by its changes, count along the chain named.

Tests used:
SETX-HD-R/H = target: T1, SETX-HD-R/H (Homo sapiens, UniProt Q7Z333 1674-2677, R2136H); experiment: EMSA
T1 sequence: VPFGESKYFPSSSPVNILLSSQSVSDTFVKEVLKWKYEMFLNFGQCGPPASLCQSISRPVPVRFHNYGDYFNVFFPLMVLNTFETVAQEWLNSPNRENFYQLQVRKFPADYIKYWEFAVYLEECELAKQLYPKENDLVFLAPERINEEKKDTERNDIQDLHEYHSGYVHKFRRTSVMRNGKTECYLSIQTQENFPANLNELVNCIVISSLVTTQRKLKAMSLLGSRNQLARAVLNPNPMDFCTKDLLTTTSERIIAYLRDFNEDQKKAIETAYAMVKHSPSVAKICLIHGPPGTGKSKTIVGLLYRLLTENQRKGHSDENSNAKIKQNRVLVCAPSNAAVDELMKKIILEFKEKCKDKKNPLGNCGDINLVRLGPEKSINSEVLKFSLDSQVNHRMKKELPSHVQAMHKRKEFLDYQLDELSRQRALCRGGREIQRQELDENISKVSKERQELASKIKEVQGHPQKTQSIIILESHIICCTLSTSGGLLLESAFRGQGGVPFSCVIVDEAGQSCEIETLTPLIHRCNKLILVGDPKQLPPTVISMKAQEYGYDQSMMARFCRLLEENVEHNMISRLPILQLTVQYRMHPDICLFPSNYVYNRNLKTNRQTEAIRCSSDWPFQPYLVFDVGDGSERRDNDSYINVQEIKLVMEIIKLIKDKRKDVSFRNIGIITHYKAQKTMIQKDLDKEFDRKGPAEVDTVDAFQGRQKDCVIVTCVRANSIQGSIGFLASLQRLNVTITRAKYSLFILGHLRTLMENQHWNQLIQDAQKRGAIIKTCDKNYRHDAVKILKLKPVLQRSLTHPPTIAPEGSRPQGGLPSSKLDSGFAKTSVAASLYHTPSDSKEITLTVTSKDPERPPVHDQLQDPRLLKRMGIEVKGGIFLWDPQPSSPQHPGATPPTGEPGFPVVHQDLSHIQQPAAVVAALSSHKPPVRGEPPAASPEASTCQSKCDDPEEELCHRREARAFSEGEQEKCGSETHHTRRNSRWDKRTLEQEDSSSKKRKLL

SETX-HD-V1884T = target: T2, SETX-HD-V1884T (Homo sapiens, UniProt Q7Z333 1674-2677, V1884T); experiment: EMSA
T2 sequence: T1 sequence with V211T, H463R

B1: ssRNA pRMS678 (61 nt) (ssRNA)
RNA: UUGUCUUCUCAUAAAUUUAAUCCCCGUACGCUUAUACUCCUUUAACUACCCAGUCUUCCCG
B1: binds (SETX-HD-R/H); binds (SETX-HD-V1884T).
